Where a chain is given by its changes, count along the chain named.

Experiment [1] deals with T1, human coagulation factor XI (human, UniProt P03951 19-625).
T1 construct: Bought protein; also called FXI; fXI
Nature of the experiment: ELISA on coated human FXI. On the procedure:
(§1) A standard ELISA format was used for analyzing the binding affinity of antibodies of this invention to FXI. Human FXI was obtained from Haematologic Technologies Inc. (human FXI; Cat. No. HCXI-0150), baboon FXI was generated as described below. These antigens were coated to black 384 well Maxisorp microtitter plates (Nunc; Cat. No: 460518), diluted to a concentration of 1 μg/ml in 1× Coating Buffer (Candor Bioscience; Cat. No. 121125). Plates were incubated overnight at 4° C. After ovemight incubation, plates were washed 2× with 50 μl/well using Phosphate Buffered Saline (PBS, SigmaAldrich, Cat. No. D8662)+0.05% Tween 20 (SigmaAldrich, Cat. No. P9416). Following this, 50 μl/well of blocking buffer (Smart Block; Candor Bioscience; Cat. No. 113500) was added and the plates incubated for 1 hour at room temperature. Afterwards, plates were washed for 3× using 50 μl/well of a PBS+0.05% Tween 20 buffer. Antibodies of this invention were added at different concentrations in a final volume of 30 μl/well. Plates were incubated for 1 hour at room temperature. Following this incubation step, plates were washed for 3× using 50 μl/well of a PBS+0.05% Tween 20 buffer. For the detection of bound candidate antibodies, the anti-h-Fc-POD antibody (Sigma; Cat. No. A0170) was diluted by the factor of 1:10000 in 10% Blocking Buffer. […]

In experiment [2] the target is T1, human coagulation factor XI. Nature of the experiment: competitive ELISA on coated FXI, competitor biotinylated 1A6.
Experiment [3] shares this target. The experiment can be described thus: ELISA on coated human FXI, anti-h-Fc-POD detection. The method, then: as §1
In general terms: ELISA stands for enzyme-linked immunosorbent assay.

B1: humanized and germlined anti-FXI antibody TPP-3290 (antibody, human IgG1, kappa, V domains shown)
VH: EVTLRESGPALVKPTQTLTLTCTFSGFSLSTSGMGVSWIRQPPGKALEWLAHIDWDDDKYYSTSLKSRLTISKDTSKNQVVLTMTNMDPVDTATYYCARIRSSVYAHYYGMDYWGQGTTVTVSS
VL: DIVMTQSPDSLAVSLGERATISCKASQSVLYSGDNYLNWYQQKPGQPPKLLIYAASTLESGIPDRFSGSGSGTDFTLTISSLQAEDVAVYYCQQYNGTPWTFGGGTKVEIKR
notes: IgG expressed in HEK293-6E cells; also called TTP3290
On to B1, for which the binding result in experiment [1] is “binds”.

B2: humanized and germlined anti-FXI antibody TPP-3583 (antibody, human IgG1, kappa, V domains shown)
VH: B1 VH with S37G, T63P
VL: B1 VL with T98D
notes: also called TTP-3583
On to B2, for which the binding result in experiment [2] is recorded as “binds”.

B3: humanized and germlined anti-FXI antibody TPP-3238 (antibody, human IgG1, kappa, V domains shown)
VH: B1 VH with A106Y, H107Y, Y113V
VL: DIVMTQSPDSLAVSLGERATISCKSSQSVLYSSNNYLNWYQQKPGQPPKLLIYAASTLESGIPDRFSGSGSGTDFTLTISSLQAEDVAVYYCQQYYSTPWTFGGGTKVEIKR
notes: IgG expressed in HEK293-6E cells
B3: in experiment [3], the binding result is given as “binds”.
